From publication PMC6213277

Assays:
[1] = target: McjD-C547 (cys-less McjD with the native cysteine C547 only), labelled with Alexa555 and Alexa647 (Escherichia coli) (UniProt Q9X2W0); assay: FRET or BRET; single-molecule FRET, confocal scanning, 10 ms time resolution; labelled McjD reconstituted in biotin-DOPE proteoliposomes (protein to lipid ~1:1,000 w/w) immobilised through neutravidin on PEG-biotin coverslips; oxygen-free buffer with Trolox; FRET between the single cysteines of the two protomers
[2] = target: McjD L67C (single cysteine in cys-less McjD), labelled with Alexa555 and Alexa647 (Escherichia coli) (UniProt Q9X2W0)
[3] = target: McjD Y64C (single cysteine in cys-less McjD), labelled with Alexa555 and Alexa647 (Escherichia coli) (UniProt Q9X2W0)

Molecule | lifetime of the dimerized ATP-free NBD state [1] [ms] | mean apparent FRET efficiency E* between the dyes at L67C of the two protomers (opening of the TMD), proteoliposomes, with 10 mM ATP and 200 uM MccJ25 (apo 0.69) [2] | mean apparent FRET efficiency E* between the dyes at L67C of the two protomers (opening of the periplasmic gate of the TMD), detergent, with ATP + MccJ25 (apo 0.95; ATP alone 0.95) [2] | mean apparent FRET efficiency E* between the dyes at Y64C of the two protomers (opening of the TMD), proteoliposomes, with 10 mM ATP and 200 uM MccJ25, first population (apo 0.81 & 0.60) [3] | mean apparent FRET efficiency E* between the dyes at Y64C of the two protomers (opening of the TMD), proteoliposomes, with 10 mM ATP and 200 uM MccJ25, second population (apo 0.81 & 0.60) [3] | mean apparent FRET efficiency E* between the dyes at Y64C of the two protomers (opening of the periplasmic gate of the TMD), detergent, with ATP + MccJ25 (apo 1.07; ATP alone 1.01) [3]
McjD-C547 (cys-less McjD with the native cysteine C547 only), labelled with Alexa555 and Alexa647 (from UniProt Q9X2W0 1-580) (natural protein) | 82 |  |  |  |  | 
GGAGHVPEYFVGIGTPISFYG [antibacterial peptide MccJ25] |  | 0.51 | 0.83 | 0.82 | 0.52 | 0.91
